In US20230265151A1, “GIP/GLP1 CO-AGONIST COMPOUNDS” (priority 2020, published 2023):
Residue numbers refer to the chain shown, from its start.

T1: human GIP receptor (human, UniProt P48546 22-466)
T1 sequence (looked up): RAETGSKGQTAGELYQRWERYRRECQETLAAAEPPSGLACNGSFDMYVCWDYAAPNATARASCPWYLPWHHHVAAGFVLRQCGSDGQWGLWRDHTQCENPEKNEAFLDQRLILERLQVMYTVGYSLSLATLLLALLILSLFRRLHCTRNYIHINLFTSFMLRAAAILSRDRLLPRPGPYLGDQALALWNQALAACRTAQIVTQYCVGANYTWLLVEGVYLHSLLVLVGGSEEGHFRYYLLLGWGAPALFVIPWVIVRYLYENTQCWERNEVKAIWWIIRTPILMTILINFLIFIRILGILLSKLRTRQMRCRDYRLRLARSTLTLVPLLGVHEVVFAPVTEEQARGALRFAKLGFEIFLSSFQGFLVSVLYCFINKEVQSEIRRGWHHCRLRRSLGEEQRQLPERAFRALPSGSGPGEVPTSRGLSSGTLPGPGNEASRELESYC

T2: human GIP receptor (human) (UniProt P48546)
T2 sequence (looked up): T1 sequence (looked up)

B1: Example 359 (peptide)
peptide: YXEGTXTSDXXIXLDXKAQXEFIXXLIEGGPSSGAPPPSK
modifications: Y-Aib-EGT-αMeF(2F)-TSD-4Pal-Aib-I-αMeL-LD-Orn-K((2-[2-(2-Amino-ethoxy)-ethoxy]-acetyl)2-(γ-Glu)-CO-(CH2)12-CO2H)AQ-Aib-EFI-(D-Glu)-αMeY-LIEGGPSSGAPPPSK((2-[2-(2-Amino-ethoxy)-ethoxy]-acetyl)2-(γ-Glu)-CO-(CH2)12-CO2H)-NH2
B2: Example 374 (peptide)
peptide: B1 peptide with X10Y
modifications: Y-Aib-EGT-αMeF(2F)-TSDY-Aib-I-αMeL-LD-Orn-K((2-[2-(2-Amino-ethoxy)-ethoxy]-acetyl)-(γ-Glu)-(10-(4-carboxyphenoxy)decanoyl))AQ-Aib-EFI-(D-Glu)-αMeY-LIEGGPSSGAPPPSK((2-[2-(2-Amino-ethoxy)-ethoxy]-acetyl)-(γ-Glu)-(10-(4-carboxyphenoxy)decanoyl))-NH2
B3: Example 377 (peptide)
peptide: B1 peptide with X10Y, K17I, E21K
modifications: Y-Aib-EGT-αMeF(2F)-TSDY-Aib-I-αMeL-LD-Orn-IAQ-Aib-K((2-[2-(2-Amino-ethoxy)-ethoxy]-acetyl)-(γ-Glu)-(10-(4-carboxyphenoxy)decanoyl))FI-(D-Glu)-αMeY-LIEGGPSSGAPPPSK((2-[2-(2-Amino-ethoxy)-ethoxy]-acetyl)-(γ-Glu)-(10-(4-carboxyphenoxy)decanoyl))-NH2
B4: Example 362 (peptide)
peptide: B1 peptide
modifications: Y-Aib-EGT-αMeF(2F)-TSD-4Pal-Aib-I-αMeL-LD-Orn-K((2-[2-(2-Amino-ethoxy)-ethoxy]-acetyl)-(y-Glu)-(10-(4-carboxyphenoxy)decanoyl))AQ-Aib-EFI-(D-Glu)-αMeY-LIEGGPSSGAPPPSK((2-[2-(2-Amino-ethoxy)-ethoxy]-acetyl)-(γ-Glu)-(10-(4-carboxyphenoxy)decanoyl))-NH2
B5: Example 357 (peptide)
peptide: YXEGTXTSDXXIXLDXKAQXKFIXXLIEGGPSSGAPPPS
modifications: Y-Aib-EGT-αMeF(2F)-TSD-4Pal-Aib-I-αMeL-LD-Orn-K((2-[2-(2-Amino-ethoxy)-ethoxy]-acetyl)2-(γ-Glu)-CO-(CH2)12-CO2H)AQ-Aib-K((2-[2-(2-Amino-ethoxy)-ethoxy]-acetyl)2-(γ-Glu)-CO-(CH2)12-CO2H)FI-(D-Glu)-αMeY-LIEGGPSSGAPPPS-NH2
B6: Example 360 (peptide)
peptide: B5 peptide
modifications: Y-Aib-EGT-αMeF(2F)-TSD-4Pal-Aib-I-αMeL-LD-Orn-K((2-[2-(2-Amino-ethoxy)-ethoxy]-acetyl)-(γ-Glu)-(10-(4-carboxyphenoxy)decanoyl))AQ-Aib-K((2-[2-(2-Amino-ethoxy)-ethoxy]-acetyl)-(γ-Glu)-(10-(4-carboxyphenoxy)decanoyl))FI-(D-Glu)-αMeY-LIEGGPSSGAPPPS-NH2
B7: Example 378 (peptide)
peptide: B5 peptide with X10V
modifications: Y-Aib-EGT-αMeF(2F)-TSDV-Aib-I-αMeL-LD-Orn-K((2-[2-(2-Amino-ethoxy)-ethoxy]-acetyl)-(γ-Glu)-(10-(4-carboxyphenoxy)decanoyl))AQ-Aib-K((2-[2-(2-Amino-ethoxy)-ethoxy]-acetyl)-(γ-Glu)-(10-(4-carboxyphenoxy)decanoyl))FI-(D-Glu)-αMeY-LIEGGPSSGAPPPS-NH2

target: T1, human GIP receptor; assay: cell-based or functional assay

B1 and B2 are within 1.5-fold of each other in “cAMP EC50 (1.0% HSA)” value: 1.58 nM for the first, 1.96 nM for the second.

Compared with B3, B4 is 19-fold lower in “cAMP EC50 (1.0% HSA)” value: 17.5 nM for the first, 0.936 nM for the second.

Going from B5 to B6, the “cAMP EC50 (1.0% HSA)” value rises from 1.19 nM to 1.91 nM (1.6-fold).

With B7 the “cAMP EC50 (1.0% HSA)” value was 7.46 nM.

Going from B1 to B2, the “cAMP Emax (1.0% HSA)” value rises from 81% to 88.8%.

Compared with B3, B7 is higher in “cAMP Emax (1.0% HSA)” value: 79.4% for the first, 81.2% for the second.

target: human glucagon receptor (human, UniProt P47871 26-477); assay: cell-based or functional assay
Sequence (P47871 26-477): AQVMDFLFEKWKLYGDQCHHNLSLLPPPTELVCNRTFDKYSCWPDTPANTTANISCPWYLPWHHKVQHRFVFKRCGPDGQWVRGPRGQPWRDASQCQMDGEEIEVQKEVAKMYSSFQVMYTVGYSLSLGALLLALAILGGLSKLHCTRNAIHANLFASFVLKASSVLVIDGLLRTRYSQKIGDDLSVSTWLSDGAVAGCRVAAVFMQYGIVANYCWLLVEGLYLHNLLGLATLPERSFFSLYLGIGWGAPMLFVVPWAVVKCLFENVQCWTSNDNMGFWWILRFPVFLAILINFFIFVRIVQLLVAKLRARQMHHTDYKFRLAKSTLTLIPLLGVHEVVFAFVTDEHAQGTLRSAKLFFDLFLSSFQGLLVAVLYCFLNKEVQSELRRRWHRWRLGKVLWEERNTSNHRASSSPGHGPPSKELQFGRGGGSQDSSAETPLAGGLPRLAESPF

B1 and B2 cannot be ordered by “cAMP EC50 (1.0% HSA)” value: > 9950 nM for the first, > 9950 nM for the second.

B3 and B4 cannot be ordered by “cAMP EC50 (1.0% HSA)” value: > 9950 nM for the first, > 9950 nM for the second.

B5 and B6 cannot be ordered by “cAMP EC50 (1.0% HSA)” value: > 9950 nM for the first, > 9950 nM for the second.

For B7, the “cAMP EC50 (1.0% HSA)” value was > 9950 nM.

target: human GLP-1 receptor (human, UniProt P43220 24-463); assay: cell-based or functional assay

B1 and B2 are within 1.5-fold of each other in “cAMP EC50 (1.0% HSA)” value: 40.5 nM for the first, 39.7 nM for the second.

Going from B3 to B4, the “cAMP EC50 (1.0% HSA)” value falls from 178 nM to 29.9 nM (6-fold).

B5 and B6 are within 1.5-fold of each other in “cAMP EC50 (1.0% HSA)” value: 36.2 nM for the first, 28.2 nM for the second.

In the case of B7, the “cAMP EC50 (1.0% HSA)” value is reported as 47.7 nM.

Going from B1 to B3, the “cAMP Emax (1.0% HSA)” value rises from 95.1% to 110%.

For B5, the “cAMP Emax (1.0% HSA)” value was 92.8%.

target: T2, human GIP receptor (human); assay: cell-based or functional assay

Compared with B1, B2 is 1.9-fold lower in cAMP EC50: 0.0261 nM for the first, 0.0135 nM for the second.

First: B3
Second: B4
The cAMP EC50 of the first is 1.6-fold higher: 0.0205 nM for the first, 0.0131 nM for the second.

B5 and B6 are within 1.5-fold of each other in cAMP EC50: 0.011 nM for the first, 0.0121 nM for the second.

Work on B7 yielded a cAMP EC50 of 0.0132 nM.

Compared with B1, B2 is lower in cAMP Emax: 103% for the first, 96.2% for the second.

First: B3
Second: B5
The cAMP Emax of the first is lower: 92.8% for the first, 99.9% for the second.

Compared with B6, B7 is lower in cAMP Emax: 106% for the first, 93.5% for the second.

target: hGLP-1R (Homo sapiens, UniProt P43220); assay: cell-based or functional assay

Compared with B1, B2 is 4.4-fold lower in cAMP EC50: 1.18 nM for the first, 0.269 nM for the second.

B3 and B4 are within 1.5-fold of each other in cAMP EC50: 0.356 nM for the first, 0.34 nM for the second.

Compared with B5, B6 is 2.2-fold lower in cAMP EC50: 0.649 nM for the first, 0.301 nM for the second.

Binder B7 has a cAMP EC50 of 0.166 nM.

Compared with B1, B2 is higher in cAMP Emax: 104% for the first, 106% for the second.

Going from B3 to B4, the cAMP Emax rises from 100% to 109%.

First: B5
Second: B6
The cAMP Emax of the first is higher: 107% for the first, 89.8% for the second.

For B7, the cAMP Emax was 98.9%.

target: human glucagon receptor (human) (UniProt P47871); assay: cell-based or functional assay

B1 and B2 cannot be ordered by cAMP EC50: > 10100 nM for the first, > 9950 nM for the second.

B3 and B4 cannot be ordered by cAMP EC50: > 9950 nM for the first, > 10100 nM for the second.

B5 and B6 cannot be ordered by cAMP EC50: > 10100 nM for the first, > 9950 nM for the second.

In the case of B7, the cAMP EC50 is reported as > 9950 nM.
